IntAct's records for PubMed 23901104

B1: Vacuolar protein sorting-associated protein 33A (Homo sapiens), Q96AX1 (parent)
chain: MAAHLSYGRVNLNVLREAVRRELREFLDKCAGSKAIVWDEYLTGPFGLIAQYSLLKEHEVEKMFTLKGNRLPAADVKNIIFFVRPRLELMDIIAENVLSEDRRGPTRDFHILFVPRRSLLCEQRLKDLGVLGSFIHREEYSLDLIPFDGDLLSMESEGAFKECYLEGDQTSLYHAAKGLMTLQALYGTIPQIFGKGECARQVANMMIRMKREFTGSQNSIFPVFDNLLLLDRNVDLLTPLATQLTYEGLIDEIYGIQNSYVKLPPEKFAPKKQGDGGKDLPTEAKKLQLNSAEELYAEIRDKNFNAVGSVLSKKAKIISAAFEERHNAKTVGEIKQFVSQLPHMQAARGSLANHTSIAELIKDVTTSEDFFDKLTVEQEFMSGIDTDKVNNYIEDCIAQKHSLIKVLRLVCLQSVCNSGLKQKVLDYYKREILQTYGYEHILTLHNLEKAGLLKPQTGGRNNYPTIRKTLRLWMDDVNEQNPTDISYVYSGYAPLSVRLAQLLSRPGWRSIEEVLRILPGPHFEERQPLPTGLQKKRQPGENRVTLIFFLGGVTFAEIAALRFLSQLEDGGTEYVIATTKLMNGTSWIEALMEKPF
partner: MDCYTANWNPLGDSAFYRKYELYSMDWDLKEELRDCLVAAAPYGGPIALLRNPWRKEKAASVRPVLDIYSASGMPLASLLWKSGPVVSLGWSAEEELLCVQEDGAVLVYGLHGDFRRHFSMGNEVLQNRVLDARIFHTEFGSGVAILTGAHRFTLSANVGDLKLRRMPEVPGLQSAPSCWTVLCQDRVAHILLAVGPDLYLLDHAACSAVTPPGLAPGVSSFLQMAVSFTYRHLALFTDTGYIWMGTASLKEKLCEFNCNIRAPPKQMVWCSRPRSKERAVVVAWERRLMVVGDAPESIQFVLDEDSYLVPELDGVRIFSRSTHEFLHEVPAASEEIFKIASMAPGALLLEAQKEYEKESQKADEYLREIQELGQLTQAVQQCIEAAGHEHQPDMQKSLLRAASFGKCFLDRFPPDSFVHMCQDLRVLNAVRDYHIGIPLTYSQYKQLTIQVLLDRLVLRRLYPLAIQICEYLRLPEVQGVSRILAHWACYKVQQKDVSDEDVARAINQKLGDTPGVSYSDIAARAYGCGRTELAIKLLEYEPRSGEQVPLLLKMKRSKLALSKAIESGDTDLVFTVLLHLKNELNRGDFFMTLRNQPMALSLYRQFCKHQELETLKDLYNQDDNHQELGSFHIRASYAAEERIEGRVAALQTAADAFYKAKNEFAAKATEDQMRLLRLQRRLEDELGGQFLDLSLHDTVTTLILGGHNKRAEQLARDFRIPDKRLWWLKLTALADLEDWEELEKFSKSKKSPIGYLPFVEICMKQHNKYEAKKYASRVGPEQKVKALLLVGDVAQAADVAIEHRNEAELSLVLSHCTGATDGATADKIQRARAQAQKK
B2: Vacuolar protein sorting-associated protein 16 homolog (Homo sapiens), Q9H269 (parent)
chain: B1 partner
partner: B1 chain

Variants of: B1
Settings: with vps16_human VPS16, Q9H269

effect of a mutation on the interaction | Variant
disrupting interaction | K429D
disrupting interaction | Y438D

The next lines start with the variant.

Variant | effect of a mutation on the interaction
Y438P | disrupting interaction strength
I441K | disrupting interaction

Variants of: B2
Settings: with vp33a_human VPS33A

effect of a mutation on the interaction | Variant
disrupting interaction | R725E
decreasing interaction | A669D
